According to patent US20250011363A1, “OPTIMIZED SHORTENED PEPTIDE THAT BINDS TO ACETYLCHOLINE RECEPTOR, AND USE THEREOF” (SKINMED CO., LTD., priority 2021, published 2025):

target: acetylcholine receptor (Homo sapiens, UniProt P02708); assay: SPR binding affinity (RU) of optimized 5mer/6mer/7mer peptides, Examples 6-7; details: SPR, peptides at 10 μM; 6mer-2 Bottom sequence
In short: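 SPR, peptides at 10 μM; read-out = response units (RU). Sequences drawn from top- or bottom-frequency amino acid combinations, 5mer/6mer-1/6mer-2 libraries.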

Sequence of acetylcholine receptor (P02708 21-457): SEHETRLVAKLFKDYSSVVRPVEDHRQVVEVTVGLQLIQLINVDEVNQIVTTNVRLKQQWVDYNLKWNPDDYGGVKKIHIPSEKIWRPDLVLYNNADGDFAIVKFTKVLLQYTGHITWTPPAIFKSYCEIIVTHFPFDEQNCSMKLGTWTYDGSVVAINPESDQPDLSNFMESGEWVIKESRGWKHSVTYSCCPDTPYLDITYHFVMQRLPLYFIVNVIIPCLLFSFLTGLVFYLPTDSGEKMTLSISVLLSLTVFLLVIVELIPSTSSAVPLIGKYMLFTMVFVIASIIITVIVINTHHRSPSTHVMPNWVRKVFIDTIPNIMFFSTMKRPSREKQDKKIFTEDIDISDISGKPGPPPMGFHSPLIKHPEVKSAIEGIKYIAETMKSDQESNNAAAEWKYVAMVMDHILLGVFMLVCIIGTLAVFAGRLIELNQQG

Substance | Binding affinity [Ru]
6mer-2-1053 (KEMGKK) | 34
6mer-2-1054 (KKNKKR) | 43
6mer-2-1055 (KPDFKR) | 30
6mer-2-1056 (RNDERK) | 22
6mer-2-1057 (RKKKKK) | 25
6mer-2-1058 (RMPWKK) | 24
6mer-2-1059 (RFADRR) | 35
6mer-2-1060 (KTNERK) | 35
6mer-2-1061 (KPPIKK) | 38
6mer-2-1062 (KYNIRK) | 35
6mer-2-1063 (RFNVRK) | 24
6mer-2-1064 (RCMKRR) | 39
6mer-2-1065 (RIANRK) | 27
6mer-2-1066 (KPEHKR) | 29
6mer-2-1067 (RDEIRK) | 29
6mer-2-1068 (RIHVKK) | 26
6mer-2-1069 (KHDMKK) | 36
6mer-2-1070 (RPHVRR) | 31
6mer-2-1071 (RTTWRK) | 25
6mer-2-1072 (KPHWKR) | 29
6mer-2-1073 (KYSWRK) | 24
6mer-2-1074 (RPMGRK) | 33
6mer-2-1075 (RHMERK) | 31
6mer-2-1076 (RYCIRR) | 34
6mer-2-1077 (KMTIKK) | 34

Substance | Binding affinity [Ru]
6mer-2-1078 (KDTFRR) | 40
6mer-2-1079 (KCNEKK) | 40
6mer-2-1080 (RKHKKK) | 23
6mer-2-1081 (KYKMRR) | 32
6mer-2-1082 (KYTERR) | 31
6mer-2-1083 (KTKGKR) | 39
6mer-2-1084 (REKPRK) | 29
6mer-2-1085 (RPEIRK) | 42
6mer-2-1086 (KNDWRK) | 21
6mer-2-1087 (KEEMRR) | 21
6mer-2-1088 (RPCEKK) | 39
6mer-2-1089 (RKTDRR) | 43
6mer-2-1090 (KEMHKK) | 33
6mer-2-1091 (RFDNKR) | 31
6mer-2-1092 (RAKFRR) | 21
6mer-2-1093 (KTTDKK) | 43
6mer-2-1094 (KAWERK) | 43
6mer-2-1095 (KYSMRR) | 39
6mer-2-1096 (RANVKR) | 39
6mer-2-1097 (RFWEKK) | 23
6mer-2-1098 (KHPKRR) | 28
6mer-2-1099 (REDWRR) | 21
6mer-2-1100 (RTAPKK) | 24
6mer-2-1101 (RTKMRR) | 38
6mer-2-1102 (KHKGKR) | 32

Substance | Binding affinity [Ru]
6mer-2-1103 (RDAWRK) | 42
6mer-2-1104 (RYTKKR) | 38
6mer-2-1105 (RNNAKK) | 28
6mer-2-1106 (KDKVKR) | 28
6mer-2-1107 (RAHERK) | 29
6mer-2-1108 (KKKVRR) | 36
6mer-2-1109 (KEDMRK) | 26
6mer-2-1110 (RMTKKK) | 37
6mer-2-1111 (REDEKK) | 23
6mer-2-1112 (RASWRK) | 26
6mer-2-1113 (KPNFRK) | 43
6mer-2-1114 (RKKFRK) | 34
6mer-2-1115 (KYSPRK) | 39
6mer-2-1116 (KMEVKK) | 31
6mer-2-1117 (RMHVKR) | 21
6mer-2-1118 (RFDGRR) | 42
6mer-2-1119 (KCTVRK) | 39
6mer-2-1120 (RDMMKK) | 28
6mer-2-1121 (KPSKRR) | 21
6mer-2-1122 (RCNFKK) | 22
6mer-2-1123 (RITARR) | 36
6mer-2-1124 (RKTWRK) | 39
6mer-2-1125 (RDAFKK) | 30
6mer-2-1126 (RHEVRR) | 23
6mer-2-1127 (KAAEKK) | 42

Substance | Binding affinity [Ru]
6mer-2-1128 (KNCMRK) | 36
6mer-2-1129 (RITGKR) | 42
6mer-2-1130 (RHSFRK) | 29
6mer-2-1131 (RTNAKR) | 26
6mer-2-1132 (RPWERR) | 32
6mer-2-1133 (KMKMKK) | 22
6mer-2-1134 (KYENRK) | 30
6mer-2-1135 (RANWKR) | 29
6mer-2-1136 (KMKKKR) | 36
6mer-2-1137 (RTDFKR) | 22
6mer-2-1138 (KAHFKK) | 42
6mer-2-1139 (KAKAKK) | 39
6mer-2-1140 (KMNKKR) | 29
6mer-2-1141 (KCTGKR) | 32
6mer-2-1142 (KKAMKR) | 30
6mer-2-1143 (KACIKK) | 42
6mer-2-1144 (RFEDRK) | 39
6mer-2-1145 (RIKNRR) | 23
6mer-2-1146 (REWGRK) | 32
6mer-2-1147 (KFMKKK) | 35
6mer-2-1148 (KEKGKR) | 34
6mer-2-1149 (KIDFRR) | 21
6mer-2-1150 (KTDVKK) | 42
6mer-2-1151 (RYPVRK) | 43
6mer-2-1152 (RNWAKK) | 37

Substance | Binding affinity [Ru]
6mer-2-1153 (KHKPKR) | 27
6mer-2-1154 (RYEARR) | 30
6mer-2-1155 (RNTNRK) | 25
6mer-2-1156 (KMNARR) | 35
6mer-2-1157 (RNTDRK) | 37
6mer-2-1158 (RDNIRK) | 37
6mer-2-1159 (KDMGKR) | 40
6mer-2-1160 (RITVKK) | 23
6mer-2-1161 (RHSFKK) | 27
6mer-2-1162 (KMSERR) | 34
6mer-2-1163 (KCHFKK) | 37
6mer-2-1164 (RYNHKR) | 33
6mer-2-1165 (RIKAKK) | 30
6mer-2-1166 (KCSIKK) | 26
6mer-2-1167 (RCAPKR) | 27
6mer-2-1168 (KMKPKK) | 41
6mer-2-1169 (KICERK) | 21
6mer-2-1170 (KFTIRR) | 25
6mer-2-1171 (KMPARR) | 40
6mer-2-1172 (KNCERR) | 36
6mer-2-1173 (KCCNKK) | 38
6mer-2-1174 (RCEPRK) | 21
6mer-2-1175 (RYSKRR) | 34
6mer-2-1176 (RYTEKK) | 43
6mer-2-1177 (RASEKR) | 41

Substance | Binding affinity [Ru]
6mer-2-1178 (KTTVRK) | 30
6mer-2-1179 (KACVKK) | 34
6mer-2-1180 (RAANRR) | 34
6mer-2-1181 (KACWKR) | 32
6mer-2-1182 (RHNDKR) | 30
6mer-2-1183 (RENNRK) | 35
6mer-2-1184 (KFWVRR) | 22
6mer-2-1185 (RIDAKK) | 42
6mer-2-1186 (KEKFRR) | 27
6mer-2-1187 (RTADRK) | 36
6mer-2-1188 (RAPARR) | 22
6mer-2-1189 (KTAPKK) | 40
6mer-2-1190 (KACIRR) | 32
6mer-2-1191 (KKADRK) | 35
6mer-2-1192 (KHKNKR) | 40
6mer-2-1193 (REKIRR) | 43
6mer-2-1194 (KYCDRK) | 35
6mer-2-1195 (KMTERK) | 25
6mer-2-1196 (RESKKR) | 39
6mer-2-1197 (KNCIKK) | 23
6mer-2-1198 (RMSHRR) | 27
6mer-2-1199 (RCTNKR) | 27
6mer-2-1200 (RHHNRR) | 30

same assay, conditions: SPR; XRRQRR-6mer and RRQRRX-6mer

Substance | Binding affinity, relative value to the RRQRR sequence
3601 (GRRQRR) [compound 3601] | 132
3602 (ARRQRR) [compound 3602] | 129
3603 (VRRQRR) [compound 3603] | 135
3604 (CRRQRR) [compound 3604] | 123
3605 (PRRQRR) [compound 3605] | 133
3606 (LRRQRR) [compound 3606] | 144
3607 (IRRQRR) [compound 3607] | 121
